The record followed here is the supplement of paper PMC9170038.

The test system of this data set is MS2 coat protein. Nature of the data set: apparent KD of MS2 coat protein; designed switch direction (-1 OFF switch, 1 ON switch): -1; higher = weaker reporter binding. In short, it runs like this:
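An oligonucleotide input, 200 uM small-molecule ligand, or no input was present during titration of SNAP-549-labelled MS2 coat protein, which was doubled from 0.7 or 1.5 nM to 3 µM. Designed RNA switches had been transcribed on Illumina chips by stalled E. coli RNA polymerase. Apparent KD per design is the median over clusters of curves fitted to normalised cluster fluorescence.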

The mark [1] stands for this setting: Eterna round: R95, input ligand: microRNA oligo, concentration not stated.
Where [2] appears, read: input ligand: microRNA oligo, concentration not stated.
The mark [3] stands for this setting: Eterna round: R95, input ligand: FMN 200 uM.
The mark [4] stands for this setting: Eterna round: R95, input ligand: none.

Regarding “GGCAUCGGAGGAUAUACUUAUGGUGAUGUUCGAAGCUUUCUACUUGAGGAUCACCCAAGUAGAAGGCCGAUGCC [jl-ex2.4.78 ViennaUCT mod] (Eterna round: R97, puzzle: Exclusion 2)”, the “apparent KD of MS2 coat protein” value came out at 5.28 nM (input ligand: FMN 200 uM) and 17.4 nM (input ligand: none).

As to “GGCGAGCGAGGAUAUACAGGGUAUCCGACUCGCCGCGGGCGACAUGAGGAUCACCCAUGUAGAAGGCGCACGCG [EX2 A.18] (Eterna round: R97, puzzle: Exclusion 2)”, the “apparent KD of MS2 coat protein” value is, setting by setting: (input ligand: FMN 200 uM) 13.9 nM; (input ligand: none) 17.6 nM.

Consider “GGCGCACAUGAGGAUCACCCAUGUGAGGAUAUGUGGCGAUCGUCGAUAGACGAUAGCCACAGAAGGCACAUGCC [Mat - Exclusion 1 - Eli Mod - D20] (Eterna round: R97, puzzle: Exclusion 1)”, for which the “apparent KD of MS2 coat protein” value turned out to be 74 nM (input ligand: FMN 200 uM) and 33.3 nM (input ligand: none).

On to “GGCUAGUGAGGAUAUACGUGCAGUCCUCAGUCGCCAGUCGGACAUGAGGAUCACCCAUGUAGAAGGUAUCGGCA [Beesraat] (puzzle: Exclusion 2)”, for which the “apparent KD of MS2 coat protein” value under setting [1] was determined as 30.2 nM.

For “GGCUGACGCGGUAGGCCUUACAUGAGGAUCACCCAUGUCGAUGCCAUUCCAAAACACGGGUUUGAGGUUCGUCAUUG [Eternabot (L1) Solution 46] (Eterna round: R97, puzzle: Sensor, turn-off variant 1)”, the “apparent KD of MS2 coat protein” value amounted to 99.7 nM (input ligand: FMN 200 uM) and 100 nM (input ligand: none).

Consider “GGGAAACAUGAGGAUCACCCAUGUCAGGAUAUCCGCUUUAAUUAAAUAAAUAAAUAAUGGAGAAGGGACAGCCC [-12.9, -10.5 kcal, 39% A] (Eterna round: R97, puzzle: Exclusion 1)”, for which the “apparent KD of MS2 coat protein” value worked out at 33.6 nM (input ligand: FMN 200 uM) and 33.7 nM (input ligand: none).

Consider “GGGAACCGAGGAUAUCAGUACACGCACAUGAGGAUCACCCAUGUGCUCCUCGGUGCUGUCUGAGAAGGCGGUGAGA [Raonxe] (Eterna round: R97, puzzle: Exclusion 5)”, for which the “apparent KD of MS2 coat protein” value runs as follows: (input ligand: FMN 200 uM) 26.9 nM; (input ligand: none) 17.6 nM.

With “GGGAAGAACCAACAAGCAAACAUGAGGAUCACCCAUGUAGUAGGAGGAAGAAAGGUGAUUUAGAAAGCUCGACUUAU [AK-miRNA-r3-6] (Eterna round: R97, puzzle: Sensor, turn-off variant 1)”, the “apparent KD of MS2 coat protein” value by setting is: (input ligand: FMN 200 uM) 159 nM; (input ligand: none) 202 nM.

Take “GGGCCUCAUGUGAGGAUAUUGGAUGAGGUGCGAGACGAGAAGGCACAUGAGGAUCACCCAUGUAACUAACCAAA [Bimaen] (Eterna round: R97, puzzle: Brourd's mod of Exclusion 4)”: the “apparent KD of MS2 coat protein” value is, setting by setting: (input ligand: FMN 200 uM) 34.8 nM; (input ligand: none) 85 nM.

Take “GGGCUCACGGUCAGGAUAUGUAAAACGUAAGUAUUAUAGAAGGGACAUGAGGAUCACCCAUGUGUGAUGAGCGC [Eternabot (L1) Solution 37] (Eterna round: R97, puzzle: Brourd's mod of Exclusion 4)”: the “apparent KD of MS2 coat protein” value (input ligand: FMN 200 uM) was found to be 323 nM and the “apparent KD of MS2 coat protein” value (input ligand: none) was 124 nM.

“GGGCUCGGUGUGAGGAUAUGCUCGGGUAAACUCGGGCAGAAGGCACAUGAGGAUCACCCAUGUAAGUCGGGCUC [-28.5, -27.4 kcal, A 23%, 4bis-4] (Eterna round: R97, puzzle: Brourd's mod of Exclusion 4)”: the “apparent KD of MS2 coat protein” value is 18.6 nM (input ligand: FMN 200 uM) and 18 nM (input ligand: none).

Turning to “GGGCUGCGACACAGCCCAACAAAACAUGAGGAUCACCCAUGUCAGGAUAUACCGAUGCAGCAUCUGUAGAAGGGACAGAUCCAA [Usorxe] (Eterna round: R96, puzzle: Exclusion NG 3)”, the “apparent KD of MS2 coat protein” value came to 120 nM (input ligand: FMN 200 uM), 88.1 nM under setting [2] and 66.3 nM (input ligand: none).

“GGGUGACAUGAGGAUCACCCAUGUCAGGAUAUGGGCCCGGGCCCGAAAGGGUUUGGGCCCAGAAGGGACUGCCC [-44.5, -43.5 kcal, 22%A (-3 GC series)] (Eterna round: R97, puzzle: Exclusion 1)”: the “apparent KD of MS2 coat protein” value (input ligand: FMN 200 uM) was 145 nM and the “apparent KD of MS2 coat protein” value (input ligand: none) is 50.3 nM.

For “GGUAACAUGAGGAUCACCCAUGUGAUACGUUACAUAUAAACCGAGGAUAUACCCUCAGAACGAGGGUAGAAGGUGGGACGACAC [Eternabot solution 8] (Eterna round: R96, puzzle: Exclusion NG 3)”, the “apparent KD of MS2 coat protein” value runs as follows: (input ligand: FMN 200 uM) 95.8 nM; under setting [2], 51.6 nM; (input ligand: none) 102 nM.

Consider “GGUACUAACACGAGAGUGUUAGUACUAUAAGCUUGUGUUACAUGAGGAUCACCCAUGUCCUCAUAAGCUCGUCUUAU [Mat - Sensor v3 - Turn-off var 2 - D76] (puzzle: Sensor v3, turn-off variant 2)”, for which the “apparent KD of MS2 coat protein” value was found to be 137 nM under setting [3], 89.6 nM under setting [1] and 156 nM under setting [4].

“GGUACUAUCACCUGAGUGGUAGUGCAACAAGCUUGUGAUACAUGAGGAUCACCCAUGUCCUCAUUUGCUCGUCUUAU [JL-sv3-2.25 JL mod] (Eterna round: R96, puzzle: Sensor v3, turn-off variant 2)”: the “apparent KD of MS2 coat protein” value (input ligand: FMN 200 uM) came out at 237 nM, the “apparent KD of MS2 coat protein” value under setting [2] was 858 nM and the “apparent KD of MS2 coat protein” value (input ligand: none) turned out to be 245 nM.

With “GGUACUAUCACCUGAGUGGUAGUGCAACAAGCUUGUGAUACAUGAGGAUCACCCAUGUCCUCAUUUGCUCGUCUUAU [JL-sv3-2.25 JL mod] (puzzle: Sensor v3, turn-off variant 2)”, the “apparent KD of MS2 coat protein” value stood at 209 nM under setting [3], 1070 nM under setting [1] and 217 nM under setting [4].

In the case of “GGUAGAGUGGUAGGAUAUCCGACUGAAACAGACGGAGAAGGACCACAGUCACUGGGUCCAAAUAUAAUAAACAAUAAAUCUACC [pwkr exNG1 F6.1] (Eterna round: R96, puzzle: Exclusion NG 1)”, the “apparent KD of MS2 coat protein” value is, setting by setting: (input ligand: FMN 200 uM) 307 nM; under setting [2], 212 nM; (input ligand: none) 331 nM.

As to “GGUAUGCAGGCUUUAGGUAACAUGAGGAUCACCCAUGUAGCAGGUCGUAACCAGGUCAUUGGUUCUCAACGCUCGUU [Eternabot (L2) Solution 46] (Eterna round: R97, puzzle: Sensor, turn-off variant 1)”, the “apparent KD of MS2 coat protein” value was 31.4 nM (input ligand: FMN 200 uM) and 34.4 nM (input ligand: none).

As for “GGUCAAGAACAGAACCGCGCUGCCCUUGACCGCUCAUUUACAUGAGGAUCACCCAUGUUUUUUGCUUGUCUUGUUAC [Qugeon] (puzzle: Sensor v3, turn-off variant 2)”, the “apparent KD of MS2 coat protein” value runs as follows: under setting [3], 16.2 nM; under setting [1], 89.6 nM; under setting [4], 17.3 nM.

On to “GGUCAGAUGGUAGGAUAUCCAUAUCGAGUGACCCUUUCAUAACAUGAGGAUCACCCAUGUCGGUGGGAGAAGGGCCGUAUGGCG [salish99_ExNG02_R04_022] (Eterna round: R96, puzzle: Exclusion NG 2)”, for which the “apparent KD of MS2 coat protein” value was 69.8 nM (input ligand: FMN 200 uM), 34.9 nM under setting [2] and 51.3 nM (input ligand: none).

Turning to “GGUCGACAUGAGGAUCACCCAUGUUAGGAUAUUAGCCAAUGGUCUCGUUAUGAGUCAUUAAGAAGGAACAUGCU [Eternabot (L1) Solution 37] (Eterna round: R97, puzzle: Exclusion 1)”, the “apparent KD of MS2 coat protein” value came out at 18 nM (input ligand: FMN 200 uM) and 14.9 nM (input ligand: none).

As for “GGUCGUAGACAGGAUAUGCGGCAAAUAAAUAAAGCAGAAGGGUCUACUUGAGGAUCACCCAAGUGGGCGGUUAA [jl-ex6-4.18 ViennaUCT mod] (Eterna round: R97, puzzle: Exclusion 6)”, the “apparent KD of MS2 coat protein” value (input ligand: FMN 200 uM) was 103 nM and the “apparent KD of MS2 coat protein” value (input ligand: none) was found to be 17.7 nM.

For “GGUCUGCGAGGAUAUACAUGAGGAUCACCCAUGUGAGAGUUACUAGUGAGGUCGAUUGGUAGAAGGCGCGGACG [JL-ex3-2.04 salish99 mod] (puzzle: Exclusion 3)”, the “apparent KD of MS2 coat protein” value under setting [3] turned out to be 19 nM, the “apparent KD of MS2 coat protein” value under setting [1] came to 103 nM and the “apparent KD of MS2 coat protein” value under setting [4] was determined as 154 nM.

For the sequence “GGUGAAGCAGGAUAUGUACCAAUAUACAUGAGGAUCACCCAUGUCAUGUAGGAACUGCGUAUAGAAGGGCUUCACC [Exclusion 5 (FMN-MS2 slide v.7)] (Eterna round: R97, puzzle: Exclusion 5)”, the “apparent KD of MS2 coat protein” value came to 123 nM (input ligand: FMN 200 uM) and 55 nM (input ligand: none).

Regarding “GGUGCGUAUGUGAGGAUAUGCUGGUCCUUGGAUCAGCAGAAGGCACAUGAGGAUCACCCAUGUGGUGUCGUACU [salish99_Bmod_Ex4_013] (puzzle: Brourd's mod of Exclusion 4)”, under setting [1], the “apparent KD of MS2 coat protein” value turned out to be 266 nM.

Take “GGUGCGUAUGUGAGGAUAUGCUGGUCCUUGGGUCGGCAGAAGGCACAUGAGGAUCACCCAUGUGGUGUCGUUCC [salish99_Bmod_ex4_101] (Eterna round: R96, puzzle: Brourd's mod of Exclusion 4)”: the “apparent KD of MS2 coat protein” value (input ligand: FMN 200 uM) is 378 nM, the “apparent KD of MS2 coat protein” value under setting [2] worked out at 80.3 nM and the “apparent KD of MS2 coat protein” value (input ligand: none) worked out at 122 nM.

On to “GGUGCGUAUGUGAGGAUAUGCUGGUCCUUGGGUCGGCAGAAGGCACAUGAGGAUCACCCAUGUGGUGUCGUUCC [salish99_Bmod_ex4_101] (puzzle: Brourd's mod of Exclusion 4)”, for which, under setting [1], the “apparent KD of MS2 coat protein” value worked out at 68 nM.

As for “GGUGCGUUUGUGAGGAUAUGCUGGUCCUUGGAUCGGCAGAAGGCACAUGAGGAUCACCCAUGUGGUGUCGUACC [salish99_Bmod_Ex4_035] (puzzle: Brourd's mod of Exclusion 4)”, under setting [1], the “apparent KD of MS2 coat protein” value came to 280 nM.

In the case of “GGUGGACAUGAGGAUCACCCAUGUGAGGAUAUCGGCUAUCUUGUCGCUGUCGGUUGCUCGAGAAGGCACAUUGU [Exclusion 1 V95] (puzzle: Exclusion 1)”, the “apparent KD of MS2 coat protein” value under setting [1] was 69.2 nM.
